Here are results for two molecules from patent US20200277405A1, “COMPOSITION FOR ANTIBODY-DRUG CONJUGATE DIRECTED AGAINST TUMOR-CELL ASSOCIATED POLYSIALIC ACID” (Cornell University, priority 2019, published 2020).

Test [1] concerns cells and tissues. Particulars: previously published IHC results (Zhang et al.); cited from earlier work.
Test [2] deals with polySia in formalin-fixed, paraffin-embedded (FFPE) human tissue sections of SCLC. Kind of test: IHC of FFPE tissue sections. From the text: FIGS. 6A-6D depict immunostaining of antibody ch735 to polySia-expressing cancer cells. […] Data are the geometric mean fluorescence intensity (MFI), with the values reported as the average of three replicates and the error represented as the standard deviation of the mean. […] Cells were stained with ch735, wheat germ agglutinin (WGA) to stain the cell membrane, and Hoescht to stain nuclei. Scale bars, 10 μm. […] Scale bars, 200 μm.
The avidin-biotin complex (ABC) immunoperoxidase method was performed essentially as previously described (Zhang et al., “Selection of Tumor Antigens as Targets for Immune Attack Using Immunohistochemistry: I. Focus on Gangliosides,” Int. J. Cancer 73:42-9 (1997), which is hereby incorporated by reference in its entirety). Briefly, the sections were quenched with 0.1% H2O2 in PBS for 15 min, blocked with avidin and biotin reagents (Vector, Burlingame, Calif.) for 10 min each, incubated in 10% serum from which the second antibody was raised and incubated with mAb 735 at 1 μg/ml for 1 h. This concentration was selected based on strong reactivity against known positive target cells and little or no background against stroma. The sections were subsequently incubated with biotinylated secondary antibodies for 30 min, and then incubated in ABC reagent per manufacturer's protocols (ABC Kit, Vector Laboratories, PK-6102) for 30 min. […]

Test [3] deals with polySia-positive cell lines SH-SY5Y, SW2, H69, and H82. Kind of test: Internalization assay, polySia-positive cell lines. It counts as cell-based, human. To be noted: after 1 h at 37° C.; each polySia-positive cell line. How it is done:
(§1) FIGS. 10A-10E depict internalization of ch735 into polySia-positive cancer cells. […] Nuclei were stained by Hoescht (blue). Scale bar, 10 Fluorescence intensity was measured across the dotted line and normalized to the maximum value in each channel. Arrows indicate regions of colocalization. […] Nuclei were stained by Hoescht. Scale bar, 10 Fluorescence intensity was measured across the dotted line and normalized to the maximum value in each channel. Arrows indicate regions of colocalization. The inset show only the ch735 and DNA channels of the boxed region. […] Scale bar, 10 Fluorescence intensity was measured across the dotted white line and normalized to the maximum value in each channel. […]
(§2) To calculate percent internalization, pre-chilled cells were incubated with 50 nM ch735 on ice for 1 h and then washed to remove unbound antibodies. […] Cells were fixed in 2% paraformaldehyde for 20 min and then stained with AF488-labeled antibody against human IgG and analyzed by flow cytometry and FlowJo software. Receptor-antibody complex internalization was calculated using the geometric mean as percent fluorescent intensity loss at 37° C. relative to that on ice. For each sample, the geometric mean fluorescence intensity (MFI) of 10,000 cells was measured in triplicate.

Test [4] has as its system polySia-positive cell line SH-SY5Y. Kind of test: Time course of antibody internalization. Format: cell-based, human. The procedure: as §1, §2
The test system of test [5] is SH-SY5Y cells. Kind of test: Colocalization microscopy, SH-SY5Y. Format: cell-based, human. Particulars: transferrin, LAMP-3, LAMP-1 markers. The procedure:
as §1
FIGS. 12A-12C depict colocalization of mo735 with markers that traffic to endolysosomal compartments. […] Following fixation and permeabilization, LAMP-1 antibody was applied and detected with anti-rabbit AF647 secondary. […] Cross-sectional fluorescence profiles are shown at right with normalized pixel intensity for selected cells (marked with box in left confocal panels) versus distance across the cell for representative cross sections (marked with bar in right confocal panels).
SH—SY5Y or SW2 cells were plated at 20,000 cells/cm^2 on poly-L-lysine coated 35 mm glass bottom dishes and adhered overnight. […] The fluorescence intensity of the plot profile was analyzed using FIJI software. […]

Test [6] has as its system polySia-negative MCF7 cells. Put plainly: Internalization assay, MCF7. To be noted: after 1 h. Format: cell-based, human. The procedure:
as §1, §2

B1: mo735: well-known mouse-derived IgG2a monoclonal antibody 735 targeting polysialic acid (antibody, V domains shown)
VH: QIQLQQSGPELVRPGASVKISCKASGYTFTDYYIHWVKQRPGEGLEWIGWIYPGSGNTKYNEKFKGKATLTVDTSSSTAYMQLSSLTSEDSAVYFCARGGKFAMDYWGQGTSVTVSS
VL: DVVMTQTPLSLPVSLGDQASISCRSSQSLVHSNGNTYLYWYLQKPGQSPKPLIYRVSNRFSGVPDRFSGSGSGTDFTLKISRVEAEDLGVYFCFQGTHVPYTFGGGTRLEIK
For B1, in test [1], the “IHC reactivity with cells and tissues” value was “reacted with only a limited number of cells and tissues”. The “IHC staining of polySia” value in test [2] (FFPE human SCLC tissue sections) is given as “strong staining”; in test [2] (adjacent normal tissue, except bronchial epithelial cells and alveolar macrophages), “little to no staining”.

B2: ch735: chimeric human IgG1 polySia-specific mAb made by swapping variable regions of mouse mAb 735 (antibody, V domains shown)
VH: QIQLQQSGPELVRPGASVKISCKASGYTFTDYYIHWVKQRPGEGLEWIGWIYPGSGNTKYNEKFKGKATLTVDTSSSTAYMQLSSLTSEDSAVYFCARGGKFAMDYWGQGTSVTVSS
VL: DVVMTQTPLSLPVSLGDQASISCRSSQSLVHSNGNTYLYWYLQKPGQSPKPLIYRVSNRFSGVPDRFSGSGSGTDFTLKISRVEAEDLGVYFCFQGTHVPYTFGGGTRLEIK
In the case of B2, the antibody internalized in test [3] was roughly 40%; in test [4] (15 min), roughly 30%. The same molecule registered a maximum internalization in test [4] (reached by 30 min) of 40%. Besides, in test [5], the “compartments of accumulation after internalization (confocal)” value is “rapidly internalized in endosomal/lysosomal compartments”. Moreover, the antibody internalization entry in test [6] is recorded as “no internalization”.
